{"source": "patent US20230192860A1", "about": "(Bristol-Myers Squibb, published 2023)", "biological_target": "T1, monovalent hVISTA-ECD (amino acids 32-193 of SEQ ID NO: 1 with a 7xHis tail) (human, UniProt Q9H7M9 33-193)", "T1 construct": "analyte of the SPR assays; also called huVISTA-His; human VISTA-ECD", "T1 sequence (Q9H7M9 other isoform, or with tags, fused parts or gaps limits assumed)": "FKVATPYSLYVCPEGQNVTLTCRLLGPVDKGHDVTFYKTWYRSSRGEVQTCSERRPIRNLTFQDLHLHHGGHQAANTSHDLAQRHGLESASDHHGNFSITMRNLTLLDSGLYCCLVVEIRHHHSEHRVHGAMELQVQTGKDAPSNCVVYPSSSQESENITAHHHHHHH", "test": "SPR 37C, pH 7.4 over pH 6.0", "protocol": "Human VISTA binding kinetics of P1-061029 (“ ‘029”), P1-068761 (“ ‘761”) and P1-068767 (“ ‘767”) (as IgG1.3 antibodies) were measured at pH values between pH 7.4 and pH 6.0, i.e., at pH 6.9 and pH 6.45 using a Biacore® T100 instrument (GE Healthcare). […] Antibodies were diluted to 25 nM in PBST pH 7.4, and were captured across active biosensor flow cells at 5 ul/min for 45 seconds. A concentration series of 100 - 0.78 nM monovalent hVISTA-ECD (SEQ ID NO: 325) was prepared pH 7.4, 6.9, 6.45 and 6.0 running buffers, and was injected over the captured antibodies at 40 ul/min to measure association and dissociation. Two 15 second injections of 10 mM glycine pH 1.5 were used to regenerate the Protein A capture surface between assay cycles. Rate constants ka (kₒₙ) and kd (koff) were derived from reference flow cell and 0 nM blank-subtracted sensorgrams, and were fit to a 1:1 binding model in Biacore® T200 Evaluation Software v.2.0. The affinity constant, KD was calculated as the ratio of rate constants koff/kₒₙ for each VISTA antibody. Ratios of koff and KD at each pH relative to pH 6.0 were calculated to evaluate how the VISTA koff and KD change as the buffer pH shifts to physiological, and are shown in Table 7. […] As the buffer pH shifts from acidic to physiological, VISTA koff and KD both weaken for ‘761 and ‘767. […]", "data": [{"binder": "P1-061029.IgG1.3 (antibody, IgG1.3; also called P1-061029 (parent); P1-061029-18) heavy: EVQLVESGGGLVQPGKSLRLSCAASGFTLDDYAMHWVRQAPGKGLEWVSGINWNSANIGYADSVKGRFTISRDNAKNSLYLQMNSLRTEDTALYYCAKVPGYSGGWIDAFDVWGQGTMVTVSSASTKGPSVFPLAPSSKSTSGGTAALGCLVKDYFPEPVTVSWNSGALTSGVHTFPAVLQSSGLYSLSSVVTVPSSSLGTQTYICNVNHKPSNTKVDKRVEPKSCDKTHTCPPCPAPEAEGAPSVFLFPPKPKDTLMISRTPEVTCVVVDVSHEDPEVKFNWYVDGVEVHNAKTKPREEQYNSTYRVVSVLTVLHQDWLNGKEYKCKVSNKALPAPIEKTISKAKGQPREPQVYTLPPSREEMTKNQVSLTCLVKGFYPSDIAVEWESNGQPENNYKTTPPVLDSDGSFFLYSKLTVDKSRWQQGNVFSCSVMHEALHNHYTQKSLSLSPG light: not shown", "values": [{"measurement": "KD ratio to pH 6.0", "result": 13.2}, {"measurement": "koff ratio to pH 6.0", "result": 1.1}]}]}
